{"source": "the supplement of paper PMC9112550", "about": "“Optimization of the antimicrobial peptide Bac7 by deep mutational scanning” (BMC Biology, 2022);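 also: peptides expressed intracellularly from a pBAD plasmid library in pooled LB shake-flask culture, induced with 0.3% L-arabinose, DNA abundance read by NGS, three biological replicates, DESeq2 with apeglm shrinkage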", "data": [{"system": "Escherichia coli TOP10", "experiment": "shrunken log2 fold change of peptide-encoding DNA abundance (4.5 h post-induction vs induction); higher = less antimicrobial activity (less host growth inhibition)", "conditions": "time post-induction: 4.5 h; library: site-saturation at positions 5, 18, 19, 20", "values": [{"sequence": "RRIRWRPPRLPRPRPRPARHPRP", "shrunken log2 fold change": 0.31}, {"sequence": "RRIRHRPPRLPRPRPRPVKCPRP", "shrunken log2 fold change": -0.00443}, {"sequence": "RRIRHRPPRLPRPRPRPSFCPRP", "shrunken log2 fold change": -0.507}, {"sequence": "RRIRRRPPRLPRPRPRPPSEPRP", "shrunken log2 fold change": 0.974}, {"sequence": "RRIRERPPRLPRPRPRPFPWPRP", "shrunken log2 fold change": -0.0723}, {"sequence": "RRIRVRPPRLPRPRPRPRIQPRP", "shrunken log2 fold change": -0.196}, {"sequence": "RRIRTRPPRLPRPRPRPKQKPRP", "shrunken log2 fold change": -0.203}, {"sequence": "RRIRCRPPRLPRPRPRPVTEPRP", "shrunken log2 fold change": -0.127}, {"sequence": "RRIRYRPPRLPRPRPRPGDAPRP", "shrunken log2 fold change": 0.0773}, {"sequence": "RRIRMRPPRLPRPRPRPLRDPRP", "shrunken log2 fold change": 2.66}, {"sequence": "RRIRIRPPRLPRPRPRPIMHPRP", "shrunken log2 fold change": -0.252}, {"sequence": "RRIRFRPPRLPRPRPRPVKWPRP", "shrunken log2 fold change": 0.0401}, {"sequence": "RRIRRRPPRLPRPRPRPKTYPRP", "shrunken log2 fold change": -0.239}, {"sequence": "RRIRSRPPRLPRPRPRPFCAPRP", "shrunken log2 fold change": 0.0376}, {"sequence": "RRIRRRPPRLPRPRPRPFFMPRP", "shrunken log2 fold change": -0.0188}, {"sequence": "RRIRNRPPRLPRPRPRPPVEPRP", "shrunken log2 fold change": 0.272}, {"sequence": "RRIRARPPRLPRPRPRPFRRPRP", "shrunken log2 fold change": -0.0278}, {"sequence": "RRIRVRPPRLPRPRPRPYLDPRP", "shrunken log2 fold change": 0.0545}, {"sequence": "RRIRSRPPRLPRPRPRPTYQPRP", "shrunken log2 fold change": -0.0198}, {"sequence": "RRIRQRPPRLPRPRPRPPQYPRP", "shrunken log2 fold change": 0.198}, {"sequence": "RRIRFRPPRLPRPRPRPRDPPRP", "shrunken log2 fold change": 0.553}, {"sequence": "RRIRVRPPRLPRPRPRPGGIPRP", "shrunken log2 fold change": 0.143}, {"sequence": "RRIRQRPPRLPRPRPRPVDAPRP", "shrunken log2 fold change": -0.0176}, {"sequence": "RRIRPRPPRLPRPRPRPQEHPRP", "shrunken log2 fold change": -0.225}, {"sequence": "RRIRRRPPRLPRPRPRPCPKPRP", "shrunken log2 fold change": -0.0745}, {"sequence": "RRIRWRPPRLPRPRPRPSPGPRP", "shrunken log2 fold change": -0.0366}, {"sequence": "RRIRLRPPRLPRPRPRPKQCPRP", "shrunken log2 fold change": -0.0836}, {"sequence": "RRIRLRPPRLPRPRPRPHLVPRP", "shrunken log2 fold change": 0.0694}, {"sequence": "RRIRIRPPRLPRPRPRPRRLPRP", "shrunken log2 fold change": -0.0824}, {"sequence": "RRIRVRPPRLPRPRPRPLWHPRP", "shrunken log2 fold change": -0.0301}, {"sequence": "RRIRGRPPRLPRPRPRPKQWPRP", "shrunken log2 fold change": 0.28}, {"sequence": "RRIRMRPPRLPRPRPRPYVFPRP", "shrunken log2 fold change": -0.368}, {"sequence": "RRIRGRPPRLPRPRPRPYTPPRP", "shrunken log2 fold change": -0.526}, {"sequence": "RRIRDRPPRLPRPRPRPRCAPRP", "shrunken log2 fold change": 0.885}, {"sequence": "RRIRWRPPRLPRPRPRPYHWPRP", "shrunken log2 fold change": -0.236}, {"sequence": "RRIRYRPPRLPRPRPRPTKLPRP", "shrunken log2 fold change": -0.683}, {"sequence": "RRIRCRPPRLPRPRPRPLIFPRP", "shrunken log2 fold change": -0.514}, {"sequence": "RRIRLRPPRLPRPRPRPWAEPRP", "shrunken log2 fold change": 0.13}, {"sequence": "RRIRSRPPRLPRPRPRPVCYPRP", "shrunken log2 fold change": -0.268}, {"sequence": "RRIRARPPRLPRPRPRPNQMPRP", "shrunken log2 fold change": 0.143}, {"sequence": "RRIRYRPPRLPRPRPRPAWDPRP", "shrunken log2 fold change": -0.092}, {"sequence": "RRIRHRPPRLPRPRPRPIQAPRP", "shrunken log2 fold change": -0.0107}, {"sequence": "RRIRTRPPRLPRPRPRPFKKPRP", "shrunken log2 fold change": -0.102}, {"sequence": "RRIRFRPPRLPRPRPRPARKPRP", "shrunken log2 fold change": 0.294}, {"sequence": "RRIRHRPPRLPRPRPRPTYLPRP", "shrunken log2 fold change": -0.133}, {"sequence": "RRIRKRPPRLPRPRPRPREHPRP", "shrunken log2 fold change": 0.0968}, {"sequence": "RRIRTRPPRLPRPRPRPVFSPRP", "shrunken log2 fold change": -0.648}, {"sequence": "RRIRCRPPRLPRPRPRPVWPPRP", "shrunken log2 fold change": 0.239}, {"sequence": "RRIRDRPPRLPRPRPRPVCLPRP", "shrunken log2 fold change": 0.345}, {"sequence": "RRIRCRPPRLPRPRPRPQPLPRP", "shrunken log2 fold change": 0.19}, {"sequence": "RRIRKRPPRLPRPRPRPMYIPRP", "shrunken log2 fold change": -0.0457}, {"sequence": "RRIRRRPPRLPRPRPRPDTSPRP", "shrunken log2 fold change": 0.0612}, {"sequence": "RRIRERPPRLPRPRPRPVWQPRP", "shrunken log2 fold change": 0.123}, {"sequence": "RRIRIRPPRLPRPRPRPGIRPRP", "shrunken log2 fold change": -0.0416}, {"sequence": "RRIRHRPPRLPRPRPRPGYMPRP", "shrunken log2 fold change": -0.49}, {"sequence": "RRIRCRPPRLPRPRPRPNGFPRP", "shrunken log2 fold change": -0.0899}, {"sequence": "RRIRSRPPRLPRPRPRPERIPRP", "shrunken log2 fold change": -0.065}, {"sequence": "RRIRNRPPRLPRPRPRPVDSPRP", "shrunken log2 fold change": -0.196}, {"sequence": "RRIRRRPPRLPRPRPRPFYHPRP", "shrunken log2 fold change": 0.0115}, {"sequence": "RRIRCRPPRLPRPRPRPPLRPRP", "shrunken log2 fold change": 0.35}, {"sequence": "RRIRARPPRLPRPRPRPARHPRP", "shrunken log2 fold change": 0.424}, {"sequence": "RRIRPRPPRLPRPRPRPYTRPRP", "shrunken log2 fold change": -0.853}, {"sequence": "RRIRWRPPRLPRPRPRPAEKPRP", "shrunken log2 fold change": 0.192}, {"sequence": "RRIRSRPPRLPRPRPRPHYMPRP", "shrunken log2 fold change": -0.273}, {"sequence": "RRIRMRPPRLPRPRPRPTCIPRP", "shrunken log2 fold change": -0.00872}, {"sequence": "RRIRVRPPRLPRPRPRPYMAPRP", "shrunken log2 fold change": -0.629}, {"sequence": "RRIRRRPPRLPRPRPRPLHRPRP", "shrunken log2 fold change": 0.202}, {"sequence": "RRIRLRPPRLPRPRPRPAVRPRP", "shrunken log2 fold change": 0.0913}, {"sequence": "RRIRKRPPRLPRPRPRPGQEPRP", "shrunken log2 fold change": 0.053}, {"sequence": "RRIRLRPPRLPRPRPRPAANPRP", "shrunken log2 fold change": 0.273}, {"sequence": "RRIRVRPPRLPRPRPRPPNMPRP", "shrunken log2 fold change": -0.316}, {"sequence": "RRIRDRPPRLPRPRPRPERMPRP", "shrunken log2 fold change": 0.216}, {"sequence": "RRIRLRPPRLPRPRPRPDGMPRP", "shrunken log2 fold change": -0.153}, {"sequence": "RRIRTRPPRLPRPRPRPADRPRP", "shrunken log2 fold change": -0.108}, {"sequence": "RRIRYRPPRLPRPRPRPSCHPRP", "shrunken log2 fold change": -0.0195}, {"sequence": "RRIRMRPPRLPRPRPRPHSGPRP", "shrunken log2 fold change": 0.00795}, {"sequence": "RRIRSRPPRLPRPRPRPQGNPRP", "shrunken log2 fold change": -0.679}, {"sequence": "RRIRFRPPRLPRPRPRPEPYPRP", "shrunken log2 fold change": 0.0129}, {"sequence": "RRIRYRPPRLPRPRPRPMCYPRP", "shrunken log2 fold change": -0.399}, {"sequence": "RRIRYRPPRLPRPRPRPSGAPRP", "shrunken log2 fold change": -0.299}, {"sequence": "RRIRHRPPRLPRPRPRPTTFPRP", "shrunken log2 fold change": 0.0797}, {"sequence": "RRIRSRPPRLPRPRPRPYAFPRP", "shrunken log2 fold change": -0.487}, {"sequence": "RRIRTRPPRLPRPRPRPKAQPRP", "shrunken log2 fold change": -0.0875}, {"sequence": "RRIRNRPPRLPRPRPRPKGWPRP", "shrunken log2 fold change": 0.439}, {"sequence": "RRIRDRPPRLPRPRPRPCLNPRP", "shrunken log2 fold change": 0.0235}, {"sequence": "RRIRKRPPRLPRPRPRPVKFPRP", "shrunken log2 fold change": 0.048}, {"sequence": "RRIRTRPPRLPRPRPRPASPPRP", "shrunken log2 fold change": 0.209}, {"sequence": "RRIRHRPPRLPRPRPRPNPDPRP", "shrunken log2 fold change": -0.0353}, {"sequence": "RRIRARPPRLPRPRPRPVKMPRP", "shrunken log2 fold change": 0.163}, {"sequence": "RRIRWRPPRLPRPRPRPWALPRP", "shrunken log2 fold change": -0.158}, {"sequence": "RRIRQRPPRLPRPRPRPHAKPRP", "shrunken log2 fold change": 0.12}, {"sequence": "RRIRGRPPRLPRPRPRPCLSPRP", "shrunken log2 fold change": 0.0424}, {"sequence": "RRIRYRPPRLPRPRPRPMLTPRP", "shrunken log2 fold change": -0.0378}, {"sequence": "RRIRFRPPRLPRPRPRPRQEPRP", "shrunken log2 fold change": 0.0178}, {"sequence": "RRIRRRPPRLPRPRPRPDIKPRP", "shrunken log2 fold change": -0.374}, {"sequence": "RRIRHRPPRLPRPRPRPKCEPRP", "shrunken log2 fold change": -0.148}, {"sequence": "RRIRYRPPRLPRPRPRPIFCPRP", "shrunken log2 fold change": -0.201}, {"sequence": "RRIRWRPPRLPRPRPRPDCTPRP", "shrunken log2 fold change": 0.372}, {"sequence": "RRIRERPPRLPRPRPRPWLCPRP", "shrunken log2 fold change": -0.0006}, {"sequence": "RRIRPRPPRLPRPRPRPTEWPRP", "shrunken log2 fold change": 0.0519}, {"sequence": "RRIRFRPPRLPRPRPRPPSGPRP", "shrunken log2 fold change": 0.422}, {"sequence": "RRIRRRPPRLPRPRPRPDVIPRP", "shrunken log2 fold change": -0.068}, {"sequence": "RRIRPRPPRLPRPRPRPYQVPRP", "shrunken log2 fold change": -0.203}, {"sequence": "RRIRLRPPRLPRPRPRPRSWPRP", "shrunken log2 fold change": 0.297}, {"sequence": "RRIRARPPRLPRPRPRPKKTPRP", "shrunken log2 fold change": -0.0919}, {"sequence": "RRIRMRPPRLPRPRPRPWAPPRP", "shrunken log2 fold change": 0.214}, {"sequence": "RRIRNRPPRLPRPRPRPCTLPRP", "shrunken log2 fold change": -0.191}, {"sequence": "RRIRLRPPRLPRPRPRPLSTPRP", "shrunken log2 fold change": -0.471}, {"sequence": "RRIRYRPPRLPRPRPRPFHNPRP", "shrunken log2 fold change": -0.451}, {"sequence": "RRIRWRPPRLPRPRPRPYNVPRP", "shrunken log2 fold change": -0.758}, {"sequence": "RRIRYRPPRLPRPRPRPSFAPRP", "shrunken log2 fold change": -0.332}, {"sequence": "RRIRKRPPRLPRPRPRPNMLPRP", "shrunken log2 fold change": -0.0107}, {"sequence": "RRIRKRPPRLPRPRPRPSCSPRP", "shrunken log2 fold change": -0.0597}, {"sequence": "RRIRCRPPRLPRPRPRPKTVPRP", "shrunken log2 fold change": -0.109}, {"sequence": "RRIRWRPPRLPRPRPRPLYGPRP", "shrunken log2 fold change": -0.369}, {"sequence": "RRIRMRPPRLPRPRPRPGDMPRP", "shrunken log2 fold change": 0.484}, {"sequence": "RRIRARPPRLPRPRPRPIHVPRP", "shrunken log2 fold change": -0.143}, {"sequence": "RRIRKRPPRLPRPRPRPWDGPRP", "shrunken log2 fold change": -0.0231}, {"sequence": "RRIRSRPPRLPRPRPRPMWSPRP", "shrunken log2 fold change": 0.284}, {"sequence": "RRIRRRPPRLPRPRPRPSPQPRP", "shrunken log2 fold change": 1.96}, {"sequence": "RRIRMRPPRLPRPRPRPIYQPRP", "shrunken log2 fold change": -0.236}, {"sequence": "RRIRHRPPRLPRPRPRPGEYPRP", "shrunken log2 fold change": -0.219}, {"sequence": "RRIRRRPPRLPRPRPRPEIWPRP", "shrunken log2 fold change": 0.621}, {"sequence": "RRIRYRPPRLPRPRPRPGDPPRP", "shrunken log2 fold change": -0.223}, {"sequence": "RRIRGRPPRLPRPRPRPPPDPRP", "shrunken log2 fold change": 1.37}]}]}
